The values below come from patent US20200024348A1 (Alector, published 2020).

For assay [1], the target named is T1, human Sortilin (SORT1), full-length untagged, expressed on cells (human, UniProt Q99523 78-831).
T1 sequence: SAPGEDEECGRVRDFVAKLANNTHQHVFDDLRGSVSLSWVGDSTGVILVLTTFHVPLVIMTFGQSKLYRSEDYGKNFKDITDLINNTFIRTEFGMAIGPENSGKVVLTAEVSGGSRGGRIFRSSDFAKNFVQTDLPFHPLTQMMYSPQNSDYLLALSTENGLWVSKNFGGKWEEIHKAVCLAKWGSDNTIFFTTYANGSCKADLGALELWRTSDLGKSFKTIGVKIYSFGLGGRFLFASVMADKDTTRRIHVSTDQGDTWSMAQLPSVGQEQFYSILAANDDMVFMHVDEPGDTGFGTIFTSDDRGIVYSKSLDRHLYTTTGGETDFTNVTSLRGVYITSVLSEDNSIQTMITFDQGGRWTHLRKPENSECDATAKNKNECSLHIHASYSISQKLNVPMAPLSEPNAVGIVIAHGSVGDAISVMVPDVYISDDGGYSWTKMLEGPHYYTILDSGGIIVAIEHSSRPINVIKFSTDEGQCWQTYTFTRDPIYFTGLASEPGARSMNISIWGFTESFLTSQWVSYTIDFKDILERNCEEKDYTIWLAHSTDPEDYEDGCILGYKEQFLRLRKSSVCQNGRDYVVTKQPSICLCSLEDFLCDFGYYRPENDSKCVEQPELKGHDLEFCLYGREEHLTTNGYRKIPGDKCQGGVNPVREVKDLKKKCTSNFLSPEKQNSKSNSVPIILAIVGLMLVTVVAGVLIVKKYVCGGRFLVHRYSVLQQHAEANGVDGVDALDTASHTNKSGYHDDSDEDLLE
In words: cell-based or functional assay.

The target of assay [2] is T1, human Sortilin (SORT1), full-length …. Kind of assay: FACS on HEK293T cells expressing human SORT1. The protocol:
For the binding assay, stable HEK293T cells expressing human SORT1 were harvested by trypsinization, washed in PBS, counted and plated on 96-well u-bottom plates at 1×10⁵ cells/well. The plates were spun at 1,400 rpm for 3 minutes and primary anti-SORT1 or control antibodies were added in FACS buffer (PBS+2 FBS) and incubated on ice for one hour. Cells were subsequently centrifuged as before and washed thrice with FACS buffer. Cells were then incubated with anti-human APC conjugated secondary antibody (BD Biosciences) in FACS buffer for 30 minutes on ice. Cells were again washed three times with FACS buffer and analyzed on a BD FACS Canto or an Intellicyt Flow Cytometer. Binding was measured as median fluorescent intensity (MFI) in the […] channel of the GFP positive cell population.

Assay [3] concerns the target T2, histidine-tagged human SORT1 (R&D Systems) (human, UniProt Q99523 78-755).
T2 construct: Bought recombinant protein; also called His-tagged human SORT1; not shown: histidine tag
T2 sequence: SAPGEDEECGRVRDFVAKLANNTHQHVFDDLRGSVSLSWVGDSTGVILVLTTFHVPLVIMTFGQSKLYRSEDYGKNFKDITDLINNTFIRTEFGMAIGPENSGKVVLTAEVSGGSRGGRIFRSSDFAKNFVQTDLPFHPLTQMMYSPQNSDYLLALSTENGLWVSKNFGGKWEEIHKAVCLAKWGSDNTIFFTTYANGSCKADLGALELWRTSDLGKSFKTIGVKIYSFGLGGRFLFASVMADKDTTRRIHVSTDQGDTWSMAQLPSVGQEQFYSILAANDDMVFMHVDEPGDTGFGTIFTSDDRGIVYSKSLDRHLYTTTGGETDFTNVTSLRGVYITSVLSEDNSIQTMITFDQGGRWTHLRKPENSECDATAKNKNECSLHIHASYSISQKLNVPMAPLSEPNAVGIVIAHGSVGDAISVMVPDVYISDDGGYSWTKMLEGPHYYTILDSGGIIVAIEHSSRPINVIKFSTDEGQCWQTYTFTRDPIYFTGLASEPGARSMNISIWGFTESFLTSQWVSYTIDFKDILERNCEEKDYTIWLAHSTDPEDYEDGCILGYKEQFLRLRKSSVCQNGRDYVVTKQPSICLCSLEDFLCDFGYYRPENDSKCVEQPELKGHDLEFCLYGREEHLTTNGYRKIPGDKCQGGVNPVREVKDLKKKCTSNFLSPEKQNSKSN
In words: BLI, complete kinetic analysis with multiple concentrations of SORT1. Background: Biolayer interferometry detects binding as a change in optical thickness at a sensor tip.

B1: S-60-15.1 [N33T] as huIgG1 (antibody, V domains shown)
VH: QVQLQESGPGLVKPSETLSLTCAVSGYSISSGYYWGWIRQPPGKGLEWIGTIYHSGSTYYNPSLKSRVTISVDTSKNQFSLKLSSVTAADTAVYYCARQGSIKQGYYGMDVWGQGTTVTVSS
VL: DIVMTQSPLSLPVTPGEPASISCRSSQSLLRSTGYNYLDWYLQKPGQSPQLLIYLGSNRASGVPDRFSGSGSGTDFTLKISRAEAEDVGVYYCMQQQEAPLTFGGGTKVEIK
notes: huIgG1 without the LALAPS mutations
The Kd is the constant that tells how readily two partners part at equilibrium. A high value points to weaker binding. On to B1, for which, in assay [1], the “% DR at 150 nM antibody (IgG), U251 cells” value amounted to 69.3%. In addition, in assay [1], the “EC50 (pM): downregulation (DR) of cell surface SORT1, U251 cells, FACS” value stood at 72.6 pM. For the same molecule, the Kd in assay [2] was 0.365 nM; in assay [3] it was 0.298 nM.
